Experimental data: patent US6300088A, “Method of detecting prostate specific antigen” (Duke University, priority 1998, dated 2001)
No end group written: not given here.

Columns and labels:
[1] = mouse, in vivo, iv
Experimental: (§1) Plasma Elimination Studies--This procedure has been described in detail elsewhere. […] In brief, approximately 1.0 μg of radioiodinated protein or peptide was injected into the lateral tail vein of CD-1 mice. Blood samples of 25 μl were collected at timed intervals via retroorbital puncture. The initial time point, taken 5-10 seconds after injection, was considered to represent 100% radioactivity in circulation. Each preparation was studied at least in triplicate.

[2] = Plasma elimination studies in CD-1 mice (radioiodinated protein or peptide injected into the lateral tail vein)
Experimental: as §1

[3] = Tissue distribution of radioactivity in organs after the plasma elimination experiments (γ-counter); type: in vivo; conditions: mouse, after plasma elimination experiment; FIG. 5
Excerpt: Each preparation was studied at least in triplicate.
Following the plasma elimination experiments the organs of the test mice were examined for radioactivity using a γ-counter.

Ala-Pro-Leu-Ile-Leu-Ser-Arg (APLILSR; not fully specified; printed as Ala-Pro-Leu-Ile-Leu-Ser-Arg) [activation peptide]
effect of excess unlabelled activation peptide on clearance rate / half-life [1]: not significantly affected | plasma elimination half-life of the peptide [1]: less than 2 minutes

^125 I-α1 -ACT.cndot.PSA complexes: complex of prostate specific antigen with the protease inhibitor α1-antichymotrypsin
half-life of removal from the mouse circulation ([2]; i.v. lateral tail vein, labelled complex injected alone): approximately 20 minutes | half life in mouse circulation on coinjection with excess unlabeled complex ([2]; i.v., coinjected with a large excess of unlabeled α1-ACT·PSA complexes): several hours | half life of complex compared to native α1-ACT ([2]; mouse, i.v., FIG. 3): significantly reduced

B1: ^125 I-α1 -ACT: α1-antichymotrypsin, purified as previously described (Salvesen et al.) (protein, UniProt P01011 24-423, looked up)
Alpha-1-antichymotrypsin: HPNSPLDEENLTQENQDRGTHVDLGLASANVDFAFSLYKQLVLKAPDKNVIFSPLSISTALAFLSLGAHNTTLTEILKGLKFNLTETSEAEIHQSFQHLLRTLNQSSDELQLSMGNAMFVKEQLSLLDRFTEDAKRLYGSEAFATDFQDSAAAKKLINDYVKNGTRGKITDLIKDLDSQTMMVLVNYIFFKAKWEMPFDPQDTHQSRFYLSKKKWVMVPMMSLHHLTIPYFRDEELSCTVVELKYTGNASALFILPDQDKMEEVEAMLLPETLKRWRDSLEFREIGELYLPKFSISRDYNLNDILLQLGIEEAFTSKADLSGITGARNLAVSQVVHKAVLDVFEEGTEASAATAVKITLLSALVETRTIVRFNRPFLMIIVPTDTQNIFFMSKVTNPKQA
modifications: 125I label
organs with predominant radioactivity (tissue distribution) [3]: bladder and kidney | half life in mouse circulation ([2]; i.v. lateral tail vein, injected alone, estimated): several hours
